From publication PMC2776655 (Circulation research, 2009)
Numbering of substitutions follows the chain as printed. In names and notes the source's numbering stands. Values belong to the binder of their own block, whether it stands above or below them.

Experiments:
[1] = molecular target: the molecule itself; assay: SDS-PAGE in non-reducing conditions
[2] = molecular target: the molecule itself; assay: SDS-PAGE after treatment with DTT
[3] = molecular target: T1, VEGFR-3-Ig (UniProt P35916 25-775); assay: ELISA
T1 sequence (looked up): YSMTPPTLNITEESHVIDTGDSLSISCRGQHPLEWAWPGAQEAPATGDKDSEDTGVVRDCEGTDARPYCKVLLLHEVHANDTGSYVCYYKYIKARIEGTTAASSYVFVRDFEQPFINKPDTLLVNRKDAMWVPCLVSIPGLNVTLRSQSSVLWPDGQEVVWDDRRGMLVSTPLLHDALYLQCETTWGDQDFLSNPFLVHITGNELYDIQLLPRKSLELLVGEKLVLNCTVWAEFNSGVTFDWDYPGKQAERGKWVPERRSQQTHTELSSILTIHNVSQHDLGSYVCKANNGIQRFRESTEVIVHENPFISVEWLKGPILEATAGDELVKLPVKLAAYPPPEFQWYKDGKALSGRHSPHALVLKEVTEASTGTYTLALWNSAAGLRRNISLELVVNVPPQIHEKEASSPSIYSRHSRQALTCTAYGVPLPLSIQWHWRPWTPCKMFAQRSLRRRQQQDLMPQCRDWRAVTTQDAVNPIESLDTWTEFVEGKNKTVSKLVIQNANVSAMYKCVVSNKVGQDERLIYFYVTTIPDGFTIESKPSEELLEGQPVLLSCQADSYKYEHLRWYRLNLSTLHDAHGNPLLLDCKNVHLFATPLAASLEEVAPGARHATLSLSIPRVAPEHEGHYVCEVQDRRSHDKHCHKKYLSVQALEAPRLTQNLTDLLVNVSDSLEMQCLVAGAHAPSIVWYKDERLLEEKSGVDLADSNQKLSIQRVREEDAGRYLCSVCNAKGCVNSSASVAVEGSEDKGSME

[4] = molecular target: VEGFR-2-Ig (UniProt P35968 20-764); assay: ELISA
[5] = molecular target: T2, VEGFR-3 (protein used in isothermal titration calorimetry) (UniProt P35916 25-775); assay: ITC
T2 sequence (looked up): T1 sequence (looked up)

VEGFR-2-Ig, sequence (P35968 20-764): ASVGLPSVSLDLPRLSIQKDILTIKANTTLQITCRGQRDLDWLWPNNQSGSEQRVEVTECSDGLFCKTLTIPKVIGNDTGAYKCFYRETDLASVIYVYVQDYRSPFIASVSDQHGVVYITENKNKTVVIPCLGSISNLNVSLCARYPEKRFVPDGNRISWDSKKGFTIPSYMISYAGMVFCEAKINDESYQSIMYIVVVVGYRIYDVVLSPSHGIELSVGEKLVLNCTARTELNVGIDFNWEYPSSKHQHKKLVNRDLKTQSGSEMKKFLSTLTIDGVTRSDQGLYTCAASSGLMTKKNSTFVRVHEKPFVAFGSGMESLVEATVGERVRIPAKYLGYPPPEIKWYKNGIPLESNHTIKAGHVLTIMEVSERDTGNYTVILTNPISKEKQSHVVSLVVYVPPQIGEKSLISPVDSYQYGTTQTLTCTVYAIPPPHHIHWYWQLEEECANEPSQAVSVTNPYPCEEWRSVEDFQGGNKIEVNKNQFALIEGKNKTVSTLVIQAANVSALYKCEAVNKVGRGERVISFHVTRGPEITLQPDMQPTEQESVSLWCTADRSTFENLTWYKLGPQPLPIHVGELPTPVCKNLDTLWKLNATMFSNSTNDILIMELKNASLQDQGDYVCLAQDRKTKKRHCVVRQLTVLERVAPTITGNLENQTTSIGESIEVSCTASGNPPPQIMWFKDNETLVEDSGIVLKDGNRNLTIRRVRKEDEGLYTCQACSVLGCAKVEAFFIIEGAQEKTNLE

B1: hVEGF-Csf C137A, from transfected 293T cell medium (ligand, human, UniProt P49767 112-227, looked up)
chain: AHYNTEILKSIDNEWRKTQCMPREVAIDVGKEFGVATNTFFKPPCVSVYRCGGCCNSEGLQCMNTSTSYLSKTLFEITVPLSQGPKPVTISFANHTSCRCMSKLDVYRQVHSIIRR
- stoichiometry N [1]: 2

- EC50 [3]: 1.3 ± 0.3 nM
- EC50 [4]: 2.7 ± 0.6 nM
- Kd [5]: 280 ± 30 nM
B2: purified hVEGF-Csf C137A (ligand, human, UniProt P49767 112-227, looked up)
chain: B1 chain
- stoichiometry N [2]: 2

- EC50 [3]: 2.2 ± 0.6 nM
- EC50 [4]: 2.6 ± 0.3 nM
- Kd [5]: 310 ± 50 nM
B3: purified human VEGF-Csf (ligand, UniProt P49767 112-227, looked up)
chain: B1 chain with A26C
